In article doi:10.1101/2022.06.14.496144:

Legend:
[1] = target: GlOCPX E25C mutant (Gloeobacter kilaueensis JS1); test: SEC
[2] = target: Gloeobacter kilaueensis JS1 Orange Carotenoid Protein clade X (GlOCPX), wild type (Gloeobacter kilaueensis JS1); test: SEC-MALS
[3] = target: Gloeobacter kilaueensis JS1 Orange Carotenoid Protein clade X (GlOCPX), wild type (Gloeobacter kilaueensis JS1); test: SEC

| Substance | dimer/monomer ratio [1] | stoichiometry N [2] | dimer/monomer ratio [3] |
| --- | --- | --- | --- |
| GlOCPX E25C mutant (natural protein) | 25% |  |  |
| Gloeobacter kilaueensis JS1 Orange Carotenoid Protein clade X (GlOCPX), wild type (natural protein) |  | 2 | 5% |
